A short description of the data set: soluble on expression in E. coli; label from the status in PepcDB or PDB records.
As for “MGSDKIHHHHHHAPLPQAPIPAPSMSLPGFHAPPPSTSNGTVASGAVRTQPARMPFYVATKGKVTIYVLGTLHVGDPADYPANQPFRRPILAALAASPTLALELSPDDLLESQDDVSKYGVCNYACLPRLLPPPLWQKLANRLRGNPAALAGIRNMRPWLASLVVETYDSLSAGLQTEYGTEAQLQNVFLRKKGGKVVGLETLAEQMRAFTGLTLAQQREMLAQDMVQTPAQNAADVRALHRLWRIGDADAIAAWANAKTERLARARSIADSIDNKIVYERNRRFVARMTAIAAPNRPLFVAIGSLHLGGPKGVLELLRQQGYRVDAG”, the “soluble on expression in E. coli” value is reported as “not soluble”. Take “MGSDKIHHHHHHMLNSMRINAFVKFQFPDDLLLNSNLVYGMVNGSTYEREIRDILGGREQAVKKYASKIPEKSDAIMSLIESPFYVTRSAGSFGADVIAIRHDFSMVIEVKSSVRPYLMFSEGSGKKQEQANRINEMCTKAGIFLTYAYRIKNVQGDPWKLFVVESKPIGRFSMVYELIPKIAKTREGNYIMKWEDGLPLSSFIEIINKKII”: the “soluble on expression in E. coli” value is recorded as “not soluble”. Turning to “MFVRTAVVLLLVASTAYTFVAPPSQATLACITCVATVKGVEAKMLHEGGNVAKHDVDAICLKEVPTHSAEHLCEEYGEHEVDVMVTLIKQDVPPKMICQELQKC”, the “soluble on expression in E. coli” value is recorded as “not soluble”. Regarding “SERRLGVRAWVKENRGSFQPPVCNKLMHQEQLKVMFIGGPNTRKDYHIEEGEEVFYQLEGDMVLRVLEQGKHRDVVIRQGEIFLLPARVPHSPQRFANTVGLVVERRRLETELDGLRYYVGDTMDVLFEKWFYCKDLGTQLAPIIQEFFSSEQYRTGKPIPDQLLKEPPFPLSTRSIMEPMSLDAWLDSHHRELQAGTPLSLFGDTYETQVIAYGQGSSEGLRQNVDVWLWQLEGSSVVTMGGRRLSLAPDDSLLVLAGTSYAWERTQGSVALSVTQDPACKKPLG”, the “soluble on expression in E. coli” value is “soluble”.

“MGSDKIHHHHHHMQRENFGPAWLNENNAVMYFIVGTDIDVDIDDEIKTYEDIIQVDINENYHNITYKAIFWINEINKCRHGPKLLLKIDDDVHIDMIGLQFLIKRYSVMDDFMACRVISNGQVVRNNTSKWYLSKKDYKFPNLGTYCQGMVYFISGNLLPILHGNIEKSQFLWMDDWYVTRSLVGDYKISYYSLEQHSISPNTVREVYSSLMAIKTRKWRTIFAHFRPPQKFPMYRRRKIWANITEINNSCNILRKARINFVSAY”: the “soluble on expression in E. coli” value was “not soluble”. The result for “SSAESVSCTVKSPVALQIGDAVSDSSRPGVYITDITLAEPVNIQEISFKNFYTAYLTVRLQRRHGSTASKWVTCLKNYCLMGNPHAEAGSHDYFSIYRQQMSTEPDNVTTVRLILRQPSSEWLSFSIEEINIYPCTKEDSERDVPAWLSTLTPVDEPLDLKGLPDPETVSSSIQQMWALTEIMQASQTAASIGRFDVEGAYDVKLLSYT” reads “not soluble”.

As for “LIEGSERLSGLTDVDEVIKDLSRLLRKLVKTRWIAVYFFDRERRDFAPARSTGLPASFLPVFREMPLAPDKIPLLKSMLRKRQHLMLTDPGSSDLLTPKLRKLLRNLCVLAVPMVVRTQVIGAVFMARTRDNPPFSDAETAIIRDLVSHAALVVSHMQLFDE”, the “soluble on expression in E. coli” value is “soluble”. Turning to “MLGGSLYQVYAIKEAVKMGYYVITCDYLPNNPGHQYAHEYYNVSTTDKEAVYELAKRLQVDGVVAYASDPAAPTAAYVCEKLGLPTSPYTSVEILSQKDLFRRYLAEHNFNVPKYVGCSSYTEALEQIKNLTLPVMIKPVDSSGSKGINKLTNVDQLKDFIEDALSYSREKRIIIEEFIEKDGYQISGDAFSVDGILKFHCFGNEYYSSSVVKDFAPLGECWPFQMKPEIITELEKDIQRLISELKMGTTAYNVEAILGKNGKLYILELGARSGGSLIPQITELATGVNMVKYVIKAALGEDCSEIEMSPARGYWSNYMLHSKQTGRFKEISFDENFAKNNLVDCVTELKSGDNVHAFRDAGDALGTLILKYSSKEEMFNVIENMDQFVHIIID”, the “soluble on expression in E. coli” value was “not soluble”. Then “MGSDKIHHHHHHMKNVNQELLNHVILHKDRIPHFHKDFPLILFWSHRSGCTTLANWFFFQIGLFNEAKKYHDFIHYYEFWVYKNNTNYIPELQNGLLTAEKAVCKLVRNPYTRAVSSFLLLADNPYAIPQWESIRQYLYNDKYSNRGISFKQFLYYVRALGPNSLTMDIHFSQQYVPGEENFIQHYIPLEDFNTQITKIEHTYDLVKSNLALLTNSDHHRAHKMMYTGSYAELSITDVAFPRFPTYESFYDEETMALVTEIYAQDFEMYPYTKGIF”, with “not soluble”; and “MFFIGIFGIEEKAKVIRQIDVEICPFCTRKGSYTLFKVYNYLHFFFIPVLRWNTRYFIQTSCCSKVYLITNPQLAHDLEYGKDVPITLADVELFRNLQGMYQEGIDSDFCPNCGNRVSKNFLYCPYCGQKLELEHHHHHH”, with “not soluble”.

For “SLSGGKYVDSEGHLYTVPIREQGNIYKPNNKAMADELSEKQVYDAHTKEIDLVNRDPKHLNDDVVKIDFEDVIAEPEGTHSFDGIWKASFTTFTVTKYWFYREG”, the “soluble on expression in E. coli” value is “not soluble”. For “MAHTGRMFKIEAAEIVVARLPLKFRFETSFGVQTHKVVPLLILHGEGVQGVAEGTMEARPMYREETIAGALDLLRGTFLPAILGQTFANPEAVSDALGSYRGNRMARAMVEMAAWDLWARTLGVPLCTLLGGHKEQVEVGVSLGIQADEQATVDLVRRHVEQGYRRIKLKIKPGWDVQPVRATREAFPDIRLTVDANSAYTLADAGRLRQLDEYDLTYIEQPLAWDDLVDHAELARRIRTPLCLDESVASASDARKALALGAGGVINLKVARVGGHAESRRVHDVAQSFGAPVWCGGMLESGIGRAHNIHLSCLSNFRLPGDTSSASRYWERDLIQEPLEAVDGLMPVPQGPGTGVTLDREFLATVTEAQEEHRA”, the “soluble on expression in E. coli” value is recorded as “soluble”. Consider “MGSDKIHHHHHHMQKSLEKCSAIDYLIVLGGRHVNETIYLADERKRLPSLVKHHRASPGRLIRECEIPPLFDVIISGEAEKLIAEIGELFSRCNQSPATFIAENLDMKTEGRWIADFPRIDNTLVSDGVPLKRDELPSVVGTFGVTASFDVFEGRMTSHIFSDTGPGCIYDCNFCSERRSIAGNIQDIQGAPRRLYNQLNETVSAVMQDHPSKGASAFVEDSIFLSGSPVAITQLCQLLEKAPLEVIFGGQFTIDQILRKKDLIQRLAKCGLRYIFIGLETLEPQEIGGMSKDVDGNKQTWKDRFLQALDFMAANHIDCGCALLFGLGEAHISRRNLLNGLIKLKQETGQPITLSANWAVRHPLRSSRESENENYLRRGTPEGELLEYFHRFGEASLEYPLPNVCAPQVGEVKEIILLLNEFEASDA”, for which the “soluble on expression in E. coli” value is recorded as “not soluble”. As for “MGSDKIHHHHHHATWITTLGGMDWPRNKAVNASGIRRQQKELCDILDRLKAANFNTVLLQTRLRGDMIYPSAIETFGESLTGSTGGNPGYDPLAFAIGECHKRGMELHAWIVTIPAGNTRQVQLQGRSSVVRKNRTICKLYKGNWYLDPGNPGTKEYLSCIVKEITSRYDIDGIHFDYIRYPEQADNFPDKDTYRKYGKGKELKQWRRDNITDIVHRLYTDIKTIKPWVKVSSSPIGKYRDTNRYPSRGWNAYHVVYQDAQKWLKEGIHDALFPMMYFQGNNFYPFALDWKENCGNRWIVPGLGIYFLSPDEQNWPLDEIVRQLHFTRQIKLNGQAYFRNRFLLNNTKGIWDELQENFYTTPALIPPMTWMDSIPPSTPAMPSLQLLPDGKMHMSWQISTDNNGGLVTYHLYASDTYPVDITDAGNLLETYLTHTEYEYTPISPWRQKRYFAVTAADRFGNESAPLELNAISETDMPLLNDGDILTLPEIKEAKTVKIFTVTGEEIKYFVYAPQMSIASLPGGFYTVYILNNAGAQTFVGTIVK”, the “soluble on expression in E. coli” value is given as “not soluble”.

For “MEMAAAVRKCATFIEEKIGKHIDVTTMAYNRLMNHIRHMVSRAATGEKLKVDLNQFIEKNYPESFALAGDICKELGKDLNHEFLDNETGYLAIHIEQIKCDEMVSE”, the “soluble on expression in E. coli” value is reported as “not soluble”. Regarding “MAKITEENYVSLEDLMQLLNSSESTIRRDLGELEQEGRLHRVHGGAELFHSLQEELSNQEKSVKNSHIKKAIAQRASQLIYDNDVIFIDAGTTTEFLLPFLQAKNLTVVTNSIHHAARLVELSIETIIVGGYVKQTTDASIGNVALEQIRQMNFDKAFLGMNGVDDSYLTTPDMEEAVIKKAVLSNAKLAYILVDGTKIGQVSFVKVAPINDVTIITLGGSASILKQIKEKAKVIEL”, the “soluble on expression in E. coli” value is recorded as “soluble”.

The record behind these values is the DeepSol protein solubility set.
